± gives the standard deviation of the averaged measurements.
Tested on: ATP
Assay: switch fluorescence ratio, 500 uM ATP over buffer (Cy3 cluster intensity, sum of 5 cycles each) (fold (ratio)); higher = stronger signal-on switching upon ATP binding; sequences stand for … in TCGTCGGCAGCGTCAGATGTGTATAAGAGACAGTTTTTTTTTTTTTTTTTTTTTTTTT…TC
Settings: aptamer strand: ATP DNA aptamer (quencher-CACCTGGGGGAGTATTGCGGAGGAAGG + anchor), 100 nM annealed; ATP concentration: 500 uM
Procedure, shortened: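 Five buffer/ATP imaging cycles were run on Cy3-labelled switching-strand clusters on a modified Illumina MiSeq flow-cell, with NaOH stripping and re-annealing between cycles. In each cycle, clusters annealed to 100 nM quencher-labelled ATP aptamer were imaged in selection buffer, then after 15 min with 500 uM ATP at 22 °C. Per cluster, the fluorescence ratio is summed target-cycle over summed buffer-cycle Cy3 intensity, averaged per switch-domain sequence. Only clusters within 100-1000 RFU were kept.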
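Note: ATP exposure 15 min at 22 °C before imaging.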

Row | Sequence | switch fluorescence ratio
1 | CTTCTGGGGA | 0.993 ± 0.02
2 | ATGGGACCGT | 1.01 ± 0.056
3 | GGTTTGCAGT | 1.003 ± 0.0093
4 | GCTCTGGCTA | 1.11 ± 0.022
5 | CGGGGCGGTC | 0.96 ± 0.047
6 | TCATGCCCTT | 1.02 ± 0.033
7 | AGTTAAAAAT | 0.996 ± 0.022
8 | TTTTTCCCCT | 0.992 ± 0.023
9 | GAGGGGTATG | 1 ± 0.019
10 | TATTTTTGGT | 0.986 ± 0.021
11 | TTGGCACCCG | 1.04 ± 0.034
12 | GCACTGAAGG | 1.0196 ± 0.00041
13 | TAAAAAGTAT | 1 ± 0.015
14 | CGGTTATTAG | 0.9897 ± 0.0066
15 | GATGCTCGAA | 0.989 ± 0.025
16 | ATAAGGTGAG | 0.998 ± 0.035
17 | GTGTCGTTTG | 1 ± 0.032
18 | TTAGTCCACT | 1.0047 ± 0.001
19 | TCGGAATTGC | 1.56 ± 0.33
20 | GGGGGTATCC | 1.03 ± 0.054
21 | TCAGGGGGGG | 1.02 ± 0.022
22 | GATGCGAGGT | 0.952 ± 0.02
23 | ACAGGAGAAA | 1.01 ± 0.019
24 | AGTAGGGGGT | 1.01 ± 0.022
25 | CCTTTTTATG | 1.024 ± 0.0028

Row | Sequence | switch fluorescence ratio
26 | TATTTGAGCT | 1.03 ± 0.037
27 | AAATGGGAGG | 0.996 ± 0.032
28 | CTTTGGAGAC | 1.06 ± 0.051
29 | GGGACAGACC | 1.09 ± 0.024
30 | TCGGTGGGGA | 0.992 ± 0.087
31 | CATGCTGGG | 0.992 ± 0.04
32 | TCCGAAACAT | 1.575 ± 0.011
33 | AACGGGGGA | 0.9916 ± 0.0024
34 | AAAGGGAACA | 1.01 ± 0.019
35 | TGGGGTGGCG | 1.01 ± 0.067
36 | CGTGCCATAG | 1 ± 0.015
37 | CCTAAAGTTT | 0.983 ± 0.014
38 | TATCTGTCAA | 1.11 ± 0.032
39 | GGTAGTATGG | 1 ± 0.03
40 | CTAGTGCCAG | 1.016 ± 0.0069
41 | TTTTTTTACG | 1.06 ± 0.041
42 | TTGTACCAAA | 0.992 ± 0.047
43 | GAATGAGATC | 1.01 ± 0.11
44 | TTCCGGTAAC | 2.07 ± 0.13
45 | GATAATTTTG | 0.989 ± 0.027
46 | TTCCACGACT | 1.02 ± 0.025
47 | ATTGGAGGTT | 0.995 ± 0.013
48 | TGATTCAGGT | 1 ± 0.024
49 | CCTAGCCCTT | 1.05 ± 0.054
50 | GATCGTTTGT | 1.01 ± 0.021

Row | Sequence | switch fluorescence ratio
51 | AAGTCTACG | 1.04 ± 0.03
52 | TCCGTTGTTT | 1.03 ± 0.044
53 | CGTTTTTTTC | 1.007 ± 0.01
54 | TTGGGAACGT | 1 ± 0.11
55 | TAGTTTAATT | 0.998 ± 0.015
56 | GCAACCGGTC | 1.054 ± 0.0041
57 | GGAACACACG | 1.32 ± 0.039
58 | TTGAGAGGTT | 1.02 ± 0.039
59 | GGGGTGGGAT | 0.998 ± 0.016
60 | TTATTACGG | 1 ± 0.027
61 | AACTCAGGGG | 1.29 ± 0.067
62 | TCCTACGGGG | 1.14 ± 0.18
63 | AGAGAGAGTT | 0.974 ± 0.032
64 | AGTGCTTTTT | 1.01 ± 0.012
65 | CGTGGATACT | 1.23 ± 0.057
66 | TCGTTGCTAG | 0.982 ± 0.059
67 | TATGAAGTTG | 0.985 ± 0.015
68 | GTAAGGATGT | 0.988 ± 0.038
69 | TCGGTGGGTA | 0.983 ± 0.013
70 | TGTGTAAAGT | 1.82 ± 1.2
71 | CCTTGCGTTC | 2.68 ± 0.19
72 | TATATCTAAA | 0.973 ± 0.044
73 | ACGTAGCTTT | 1.37 ± 0.36
74 | CATCGGCAAG | 5.75 ± 1.3
75 | GTGGATAATG | 0.996 ± 0.056

Row | Sequence | switch fluorescence ratio
76 | CTGAACAGTA | 1.02 ± 0.033
77 | CATCGCGGAC | 3.88 ± 0.45
78 | TAATTTGGAG | 1 ± 0.039
79 | TAAGGTTTAT | 0.9979 ± 0.0072
80 | AGTGGGGGGA | 1.02 ± 0.028
81 | GATTTTCCGT | 1.009 ± 0.009
82 | ATAAGTGGA | 0.997 ± 0.062
83 | TTAAAGATTG | 0.987 ± 0.014
84 | TACTCTTCAT | 1.12 ± 0.15
85 | ATTTTGGGGC | 1.03 ± 0.018
86 | AAGGTGAGGT | 1.038 ± 0.006
87 | GAGAGACAGG | 1.014 ± 0.0095
88 | GATCTGTGCG | 0.972 ± 0.032
89 | GGGCTTCTTT | 0.996 ± 0.034
90 | CAGGTGACGC | 1.07 ± 0.014
91 | GCTAAAGGGG | 1.19 ± 0.31
92 | TTGTTGGGCA | 1.01 ± 0.032
93 | GTATTCAGTA | 0.995 ± 0.022
94 | TAAACCGTGG | 1.02 ± 0.024
95 | TTACGACGAC | 2.21 ± 0.096
96 | AAGTTGAGTA | 0.986 ± 0.025
97 | AAACTAGGGT | 0.9975 ± 0.0077
98 | TGGGGGGCAC | 0.986 ± 0.043
99 | ATAAATGCGT | 1.002 ± 0.0031
100 | GGGGGGCTGG | 0.979 ± 0.025

Row | Sequence | switch fluorescence ratio
101 | TAGTCTCTTG | 1 ± 0.015
102 | GAGAGGGAGC | 0.91 ± 0.076
103 | AATGTAAATA | 1.01 ± 0.018
104 | CAGTCTATCG | 1.01 ± 0.021
105 | GAATTATCAG | 0.968 ± 0.045
106 | TTCGGAGGCT | 1.23 ± 0.3
107 | GGGGGCGTTG | 1.01 ± 0.02
108 | TGATTAGATT | 1.01 ± 0.046
109 | GAGGGCCATT | 0.978 ± 0.017
110 | AATACGGGGA | 1.02 ± 0.024
111 | GCGTTTAACT | 0.9888 ± 0.008
112 | CGTTTTTTCT | 0.974 ± 0.015
113 | TGTTCTTAGT | 1 ± 0.048
114 | ATCAAAGGGG | 1 ± 0.0072
115 | AAAATAGGGA | 0.989 ± 0.024
116 | GGTATGGGAC | 1 ± 0.022
117 | TTTAGAAGGG | 0.979 ± 0.051
118 | AGGAGCGGTT | 1.02 ± 0.061
119 | GCAAGCTGCA | 1.016 ± 0.0087
120 | GAAGTTATTG | 0.9898 ± 0.0022
121 | TTTGGAAAGT | 0.991 ± 0.025
122 | GCGGGTCAGC | 1.01 ± 0.012
123 | ACCATGCCGG | 1 ± 0.077
124 | ATGGAAAGTT | 0.99 ± 0.035
125 | GCTGTAATTT | 0.998 ± 0.056

Row | Sequence | switch fluorescence ratio
126 | GTAGCTGCGG | 1.02 ± 0.038
127 | CAGGTACGGG | 1.02 ± 0.025
128 | TAGGCACAAC | 1.15 ± 0.025
129 | CTGGGATGTG | 0.98 ± 0.023
130 | GGAGGAATTT | 1.01 ± 0.016
131 | TCCCTATCAC | 1.1 ± 0.042
132 | TTTTCCCGCA | 2.02 ± 0.26
133 | CGTAGGATTG | 1.02 ± 0.03
134 | ATAGTTTTTG | 0.993 ± 0.012
135 | ATTGATGTCC | 0.976 ± 0.0098
136 | GATATTCTTT | 0.988 ± 0.018
137 | GCGGTGCTGG | 0.991 ± 0.024
138 | ATCATGCTTC | 0.994 ± 0.025
139 | GGTTTCGCCA | 0.9807 ± 0.0096
140 | AGTAAGTATG | 1.04 ± 0.054
141 | TTTAGGCAGG | 0.988 ± 0.022
142 | TTTTTAGTGC | 1 ± 0.044
143 | AATTGGATCG | 1.016 ± 0.0018
144 | TTTCTCAGTT | 0.977 ± 0.02
145 | AGGGGGGCGC | 0.993 ± 0.033
146 | TGTTGCAGAG | 1.03 ± 0.049
147 | TAGGTGGTGC | 0.986 ± 0.045
148 | CAGAGTAACA | 0.973 ± 0.03
149 | CGTGCCCTGC | 1.06 ± 0.028
150 | GTGTTATGTG | 0.9504 ± 0.0021

Row | Sequence | switch fluorescence ratio
151 | AGTTTTTATG | 1.026 ± 0.0028
152 | GTTTTAGGCT | 0.973 ± 0.061
153 | TTGGGTAGGC | 0.985 ± 0.022
154 | AACCTTGTCC | 1.61 ± 0.11
155 | AATCTACGCA | 1.44 ± 0.32
156 | CGTGGATTCC | 1.03 ± 0.011
157 | GCTTACAGGC | 1.04 ± 0.048
158 | TTAATAACGG | 1.04 ± 0.06
159 | AAAATAGAGC | 1.05 ± 0.062
160 | AAATCGTCCA | 0.992 ± 0.057
161 | GATGGGTCTA | 0.966 ± 0.029
162 | AGCGGCATGT | 0.978 ± 0.077
163 | GGTATTTGTT | 1.01 ± 0.032
164 | TCCTTTTGG | 0.996 ± 0.044
165 | AGGTTCTATT | 0.9864 ± 0.0089
166 | CTTTAGGTGG | 1.03 ± 0.037
167 | CAGGGACGGG | 1.03 ± 0.018
168 | TCATGCTGGT | 1.01 ± 0.024
169 | TCTTGAACGT | 0.978 ± 0.018
170 | AGAGAGTAGA | 1.02 ± 0.021
171 | CATTCAGTTT | 0.949 ± 0.021
172 | AACAGCGGGC | 1.03 ± 0.084
173 | TTAAGGGTAA | 0.967 ± 0.047
174 | TTTAGTGCGG | 0.973 ± 0.033
175 | TGGGGGTAGC | 1.001 ± 0.0091

Row | Sequence | switch fluorescence ratio
176 | TAATCCGCTT | 2.49 ± 0.2
177 | GAAGCTTTAG | 1.06 ± 0.019
178 | AAGGTTGACC | 1.01 ± 0.021
179 | ATAAGCGTGG | 0.995 ± 0.082
180 | TGGGGATTCT | 0.976 ± 0.0054
181 | TTAGAGGACG | 1.02 ± 0.025
182 | TGTTTGTCA | 0.989 ± 0.022
183 | TATCCAATCA | 0.9719 ± 0.0081
184 | TTCTTTGGGG | 1.04 ± 0.093
185 | AGGGGGTTCT | 1.017 ± 0.0056
186 | TTCATAGGGG | 0.988 ± 0.015
187 | ATCTAGGGTG | 1.08 ± 0.012
188 | TTTCTTTGGT | 1.016 ± 0.0075
189 | ACGCGGGGGG | 1.02 ± 0.029
190 | TGCTGTTAAT | 0.9829 ± 0.0089
191 | GTAAGGCGCA | 0.9885 ± 0.0086
192 | TTACGGTGGA | 0.9963 ± 0.0033
193 | TTTCCATTAT | 1.01 ± 0.058
194 | TTAATTATCT | 1.01 ± 0.051
195 | AGAGGTTCC | 1 ± 0.058
196 | GATTTCATGG | 0.9784 ± 0.0044
197 | AGTTTTATTT | 0.968 ± 0.032
198 | GCGTTAGTAC | 1.09 ± 0.031
199 | GAGGAAGTTT | 1 ± 0.041
200 | TATGTACGAT | 1.05 ± 0.059

Source: the supplement of paper PMC10126150
